Measurements from US20130224191A1, “NOTUM PROTEIN MODULATORS AND METHODS OF USE” (priority 2010, published 2013).

Assays:
[1] = target: T1, chimeric human/mouse Notum (Homo sapiens, UniProt Q6P988, A205S/A256S/E196D/E289D/E487K/H276R/H373G/H396Y/K251E/L360Q/L418F/L429M/L483M/M474V/N299S/P379Q/P480Q/Q248L/Q311K/R218K/R307Q/R361W/S193P/T277S/T284N/V280I/V301M/V434F/V452I/Y171H); assay: Neutralization of chimeric Notum in 293.TCF assay; type: cell-based
T1 construct: human mature Notum protein (residues 19-144) fused to the mouse Notum (mouse residues 150-484); His tag; made in house
T1 sequence (Q6P988 with tags, fused parts or gaps Y171H/S193P/E196D/A205S/R218K/Q248L/K251E/A256S/H276R/T277S/V280I/T284N/E289D/N299S/V301M/R307Q/Q311K/L360Q/R361W/H373G/P379Q/H396Y/L418F/L429M/V434F/V452I/M474V/P480Q/L483M/E487K): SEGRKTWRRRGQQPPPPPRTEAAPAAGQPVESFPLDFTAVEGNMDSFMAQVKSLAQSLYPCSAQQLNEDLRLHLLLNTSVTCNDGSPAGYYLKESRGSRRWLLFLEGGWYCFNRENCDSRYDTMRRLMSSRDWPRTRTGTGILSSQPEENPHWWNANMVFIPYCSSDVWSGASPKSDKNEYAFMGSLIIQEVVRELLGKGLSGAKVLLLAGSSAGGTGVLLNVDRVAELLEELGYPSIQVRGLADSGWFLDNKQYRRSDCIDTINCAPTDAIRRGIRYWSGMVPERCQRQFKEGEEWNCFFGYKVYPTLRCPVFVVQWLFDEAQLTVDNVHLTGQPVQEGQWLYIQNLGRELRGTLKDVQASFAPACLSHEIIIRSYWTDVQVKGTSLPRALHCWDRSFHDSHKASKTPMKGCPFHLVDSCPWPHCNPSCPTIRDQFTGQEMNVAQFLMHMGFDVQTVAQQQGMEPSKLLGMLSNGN
Text: To better understand the structural basis for the interaction of SC2.D2.2 with human Notum, a chimeric Notum protein was fabricated. This approach takes advantage of the fact that the orthologs are structurally related. To that end a chimeric Notum molecule composed of the N terminal of the human mature Notum protein (residues 19-144) fused to the mouse Notum (mouse residues 150-484) (genes both consistent with Example 7) was generated and expressed in a similar manner to that set forth in previous Examples. The BamHI restriction cleavage site in human Notum gene was used for construction of in-frame fusion Notum chimeric protein. An expression vector was then constructed containing the His tagged chimeric Notum sequence.
The chimeric human/mouse Notum protein described in Example 17 was placed into the 293.TCF assay. […] (Note that FIG. 1C would annotate the residue as D129, based upon numbering from the start of the mature Notum protein, whereas the D141 annotation is based upon the consideration of the wild-type human protein precursor).

hNotum-Fc = target: T2, hNotum-Fc (Homo sapiens, UniProt Q6P988); assay: Triton X114 partition assay, blocking of hNotum-Fc; type: biochemical; conditions: hNotum-Fc preincubated with antibody
T2 construct: IL-2 signal peptide (N); made in house; host or cells: CHO-S
T2 sequence (Q6P988 with tags, fused parts or gaps): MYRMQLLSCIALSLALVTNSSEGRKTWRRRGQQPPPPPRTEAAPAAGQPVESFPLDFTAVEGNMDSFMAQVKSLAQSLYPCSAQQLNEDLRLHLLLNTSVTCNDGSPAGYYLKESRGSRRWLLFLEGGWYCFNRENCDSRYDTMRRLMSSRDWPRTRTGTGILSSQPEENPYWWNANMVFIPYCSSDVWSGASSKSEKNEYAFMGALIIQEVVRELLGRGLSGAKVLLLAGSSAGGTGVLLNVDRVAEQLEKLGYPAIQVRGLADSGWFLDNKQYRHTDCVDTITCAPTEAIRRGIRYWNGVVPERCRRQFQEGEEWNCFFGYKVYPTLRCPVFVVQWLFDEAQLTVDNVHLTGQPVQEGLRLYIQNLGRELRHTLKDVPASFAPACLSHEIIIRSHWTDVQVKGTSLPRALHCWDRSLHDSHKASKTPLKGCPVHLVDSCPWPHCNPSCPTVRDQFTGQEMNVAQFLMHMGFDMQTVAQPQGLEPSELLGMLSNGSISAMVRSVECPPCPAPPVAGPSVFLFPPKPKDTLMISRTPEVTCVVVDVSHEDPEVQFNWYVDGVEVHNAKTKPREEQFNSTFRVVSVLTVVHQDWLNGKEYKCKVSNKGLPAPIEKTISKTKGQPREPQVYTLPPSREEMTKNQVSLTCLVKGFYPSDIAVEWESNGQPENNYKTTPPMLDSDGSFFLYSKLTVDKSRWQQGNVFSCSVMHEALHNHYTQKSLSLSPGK
Text: If Notum directly acts upon Wnt3A to delipidate the protein, this cleavage should result in a change in the hydrophobicity of the protein, which can be measured by a change in its partitioning behavior between aqueous and detergent phases in a Triton X114 partition assay (Bordier, 1981, PMID: 6257680): lipidated Wnt3A will be found in the […], whereas delipidated Wnt3A should show up in the […] (Willert et al., 2003, PMID: 12717451). […] An equal volume of 4.5% Triton X114 was added to the mixture, the mixture incubated on ice for 5 minutes, then at 37° C. for five minutes, before separating the phases using centrifugation at 2000×g for five minutes at room temperature. Following separation each sample was adjusted to normalize the ionic strength and Triton X114 content before analyzing the aliquots by PAGE electrophoresis. After running the gel the protein bands were transferred to a membrane for immunoblotting using an anti-rhWnt3A antibody (Cell Signaling Technology). Bands were visualized using SuperSignal West Pico Chemiluminescent substrate (Thermo Fisher Scientific).
Lane 1 is a positive molecular weight marker for rhWnt3A while the presence or absence of reagents in each aliquot is noted above the respective lane (where a is the aqueous fraction and t is Triton X-114 fraction, and the sliding bar indicates the concentration of Notum modulator). […]

human Notum D141N, D141S = target: T3, human Notum D141N, D141S (Homo sapiens, UniProt Q6P988, D141N); assay: Neutralization of point mutated human Notum, TCF assay; type: cell-based; conditions: human D141N or D141S
T3 construct: made in house
T3 sequence (Q6P988 20-496 D141N): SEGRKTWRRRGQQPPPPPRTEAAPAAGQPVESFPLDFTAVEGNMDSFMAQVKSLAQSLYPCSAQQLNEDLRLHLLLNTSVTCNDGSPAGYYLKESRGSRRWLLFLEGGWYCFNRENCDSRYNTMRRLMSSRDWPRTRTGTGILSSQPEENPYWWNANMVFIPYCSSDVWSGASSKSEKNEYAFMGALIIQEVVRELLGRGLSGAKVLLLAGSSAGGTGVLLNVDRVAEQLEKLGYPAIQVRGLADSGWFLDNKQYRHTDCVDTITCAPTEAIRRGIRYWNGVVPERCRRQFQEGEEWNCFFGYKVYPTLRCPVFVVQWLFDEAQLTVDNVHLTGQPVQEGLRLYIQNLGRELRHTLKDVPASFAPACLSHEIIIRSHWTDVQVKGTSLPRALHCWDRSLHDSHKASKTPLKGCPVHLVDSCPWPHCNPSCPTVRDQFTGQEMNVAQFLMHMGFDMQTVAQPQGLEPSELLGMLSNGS
Text: Similarly, the macaque residue at this position was point mutated to the human residue (N141D). […] However, these point mutants differed in their ability to be neutralized by SC2.D2.2 (FIG. 26).

B1: SC2.D2.2 (antibody, V domains shown)
VH: DVQLVESGGGLVQPGGSRKISCAASGFTFSSYGMHWVRQAPEKGLEWVAYISSSTVTTYYADTVKGRFTISRDNANNTLFLQMTSLRSEDTAMYYCSRQNWDGGYFDVWGAGTTVTVSS
VL: DIVLTQSLASLAVSLGQRATISCRASKSVSSSGYSYMHWYQQKPGQPPKLLIYLASNLESGVPARFSGSGSGTDFTLNIHPVEEEDAATYYCQHSRALPLTFGAGTKLELKR
notes: also called murine SC2.D2.2
In the case of B1, the “neutralization of chimeric Notum activity” value [1] is reported as “can be neutralized”, the “blocking of Notum induced redistribution of rhWnt3A” value (hNotum-Fc) is reported as “can be blocked” and the “neutralization of mutant Notum protein” value (human Notum D141N, D141S) is reported as “eliminated the ability of SC2.D2.2 to neutralize the mutant Notum protein”.
